In PMC12416549 (2024):

T1: TNFR1 (Homo sapiens, UniProt P19438)
T1 chain: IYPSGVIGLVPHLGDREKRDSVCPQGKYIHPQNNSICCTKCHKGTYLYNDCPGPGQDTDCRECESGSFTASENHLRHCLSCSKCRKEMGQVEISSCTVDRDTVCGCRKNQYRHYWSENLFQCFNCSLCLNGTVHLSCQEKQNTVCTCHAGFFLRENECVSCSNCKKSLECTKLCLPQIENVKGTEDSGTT


Target: T1, TNFR1
Test: yeast display SC50

| Binder | apparent Kd (screen) |
| --- | --- |
| L27A (designed binder) MTLQELLREEALRRAEAEAFRYALELAAEKFPEQKEYLLDLAEEIESQIRSLSGVDVEDVRKFLDKEWAWVKELLAEHPAELAEVEAARAARLAELRAEVEAKVAA | 593 pM |
| E67Q (designed binder) MTLQELLREEALRRAEAEAFRYALELLAEKFPEQKEYLLDLAEEIESQIRSLSGVDVEDVRKFLDKQWAWVKELLAEHPAELAEVEAARAARLAELRAEVEAKVAA | 11400 pM |
| E73N (designed binder) MTLQELLREEALRRAEAEAFRYALELLAEKFPEQKEYLLDLAEEIESQIRSLSGVDVEDVRKFLDKEWAWVKNLLAEHPAELAEVEAARAARLAELRAEVEAKVAA | 1860 pM |
| S53L (designed binder) MTLQELLREEALRRAEAEAFRYALELLAEKFPEQKEYLLDLAEEIESQIRSLLGVDVEDVRKFLDKEWAWVKELLAEHPAELAEVEAARAARLAELRAEVEAKVAA | 2250 pM |
| E44K (designed binder) MTLQELLREEALRRAEAEAFRYALELLAEKFPEQKEYLLDLAEKIESQIRSLSGVDVEDVRKFLDKEWAWVKELLAEHPAELAEVEAARAARLAELRAEVEAKVAA | 956 pM |
| E25D (designed binder) MTLQELLREEALRRAEAEAFRYALDLLAEKFPEQKEYLLDLAEEIESQIRSLSGVDVEDVRKFLDKEWAWVKELLAEHPAELAEVEAARAARLAELRAEVEAKVAA | 1270 pM |
| D65V (designed binder) MTLQELLREEALRRAEAEAFRYALELLAEKFPEQKEYLLDLAEEIESQIRSLSGVDVEDVRKFLVKEWAWVKELLAEHPAELAEVEAARAARLAELRAEVEAKVAA | 956 pM |
| A90P (designed binder) MTLQELLREEALRRAEAEAFRYALELLAEKFPEQKEYLLDLAEEIESQIRSLSGVDVEDVRKFLDKEWAWVKELLAEHPAELAEVEAARPARLAELRAEVEAKVAA | 1400 pM |
| E43G (designed binder) MTLQELLREEALRRAEAEAFRYALELLAEKFPEQKEYLLDLAGEIESQIRSLSGVDVEDVRKFLDKEWAWVKELLAEHPAELAEVEAARAARLAELRAEVEAKVAA | 790 pM |
| E36H (designed binder) MTLQELLREEALRRAEAEAFRYALELLAEKFPEQKHYLLDLAEEIESQIRSLSGVDVEDVRKFLDKEWAWVKELLAEHPAELAEVEAARAARLAELRAEVEAKVAA | 490 pM |
| Y37P (designed binder) MTLQELLREEALRRAEAEAFRYALELLAEKFPEQKEPLLDLAEEIESQIRSLSGVDVEDVRKFLDKEWAWVKELLAEHPAELAEVEAARAARLAELRAEVEAKVAA | 18300 pM |
| A69Q (designed binder) MTLQELLREEALRRAEAEAFRYALELLAEKFPEQKEYLLDLAEEIESQIRSLSGVDVEDVRKFLDKEWQWVKELLAEHPAELAEVEAARAARLAELRAEVEAKVAA | 653 pM |
| E73V (designed binder) MTLQELLREEALRRAEAEAFRYALELLAEKFPEQKEYLLDLAEEIESQIRSLSGVDVEDVRKFLDKEWAWVKVLLAEHPAELAEVEAARAARLAELRAEVEAKVAA | 1050 pM |
| V55G (designed binder) MTLQELLREEALRRAEAEAFRYALELLAEKFPEQKEYLLDLAEEIESQIRSLSGGDVEDVRKFLDKEWAWVKELLAEHPAELAEVEAARAARLAELRAEVEAKVAA | 539 pM |
| F31D (designed binder) MTLQELLREEALRRAEAEAFRYALELLAEKDPEQKEYLLDLAEEIESQIRSLSGVDVEDVRKFLDKEWAWVKELLAEHPAELAEVEAARAARLAELRAEVEAKVAA | 2250 pM |
| S47H (designed binder) MTLQELLREEALRRAEAEAFRYALELLAEKFPEQKEYLLDLAEEIEHQIRSLSGVDVEDVRKFLDKEWAWVKELLAEHPAELAEVEAARAARLAELRAEVEAKVAA | 539 pM |
| E29W (designed binder) MTLQELLREEALRRAEAEAFRYALELLAWKFPEQKEYLLDLAEEIESQIRSLSGVDVEDVRKFLDKEWAWVKELLAEHPAELAEVEAARAARLAELRAEVEAKVAA | 653 pM |

| Binder | apparent Kd (screen) |
| --- | --- |
| A23P (designed binder) MTLQELLREEALRRAEAEAFRYPLELLAEKFPEQKEYLLDLAEEIESQIRSLSGVDVEDVRKFLDKEWAWVKELLAEHPAELAEVEAARAARLAELRAEVEAKVAA | 718 pM |
| L75N (designed binder) MTLQELLREEALRRAEAEAFRYALELLAEKFPEQKEYLLDLAEEIESQIRSLSGVDVEDVRKFLDKEWAWVKELNAEHPAELAEVEAARAARLAELRAEVEAKVAA | 593 pM |
| I49F (designed binder) MTLQELLREEALRRAEAEAFRYALELLAEKFPEQKEYLLDLAEEIESQFRSLSGVDVEDVRKFLDKEWAWVKELLAEHPAELAEVEAARAARLAELRAEVEAKVAA | 539 pM |
| K72M (designed binder) MTLQELLREEALRRAEAEAFRYALELLAEKFPEQKEYLLDLAEEIESQIRSLSGVDVEDVRKFLDKEWAWVMELLAEHPAELAEVEAARAARLAELRAEVEAKVAA | 490 pM |
| A69T (designed binder) MTLQELLREEALRRAEAEAFRYALELLAEKFPEQKEYLLDLAEEIESQIRSLSGVDVEDVRKFLDKEWTWVKELLAEHPAELAEVEAARAARLAELRAEVEAKVAA | 718 pM |
| E29G (designed binder) MTLQELLREEALRRAEAEAFRYALELLAGKFPEQKEYLLDLAEEIESQIRSLSGVDVEDVRKFLDKEWAWVKELLAEHPAELAEVEAARAARLAELRAEVEAKVAA | 490 pM |
| R8M (designed binder) MTLQELLMEEALRRAEAEAFRYALELLAEKFPEQKEYLLDLAEEIESQIRSLSGVDVEDVRKFLDKEWAWVKELLAEHPAELAEVEAARAARLAELRAEVEAKVAA | 490 pM |
| L82A (designed binder) MTLQELLREEALRRAEAEAFRYALELLAEKFPEQKEYLLDLAEEIESQIRSLSGVDVEDVRKFLDKEWAWVKELLAEHPAEAAEVEAARAARLAELRAEVEAKVAA | 869 pM |
| S47V (designed binder) MTLQELLREEALRRAEAEAFRYALELLAEKFPEQKEYLLDLAEEIEVQIRSLSGVDVEDVRKFLDKEWAWVKELLAEHPAELAEVEAARAARLAELRAEVEAKVAA | 446 pM |
| M1S (designed binder) STLQELLREEALRRAEAEAFRYALELLAEKFPEQKEYLLDLAEEIESQIRSLSGVDVEDVRKFLDKEWAWVKELLAEHPAELAEVEAARAARLAELRAEVEAKVAA | 539 pM |
| I49K (designed binder) MTLQELLREEALRRAEAEAFRYALELLAEKFPEQKEYLLDLAEEIESQKRSLSGVDVEDVRKFLDKEWAWVKELLAEHPAELAEVEAARAARLAELRAEVEAKVAA | 7780 pM |
| R97Y (designed binder) MTLQELLREEALRRAEAEAFRYALELLAEKFPEQKEYLLDLAEEIESQIRSLSGVDVEDVRKFLDKEWAWVKELLAEHPAELAEVEAARAARLAELYAEVEAKVAA | 490 pM |
| V100S (designed binder) MTLQELLREEALRRAEAEAFRYALELLAEKFPEQKEYLLDLAEEIESQIRSLSGVDVEDVRKFLDKEWAWVKELLAEHPAELAEVEAARAARLAELRAESEAKVAA | 490 pM |
| A15L (designed binder) MTLQELLREEALRRLEAEAFRYALELLAEKFPEQKEYLLDLAEEIESQIRSLSGVDVEDVRKFLDKEWAWVKELLAEHPAELAEVEAARAARLAELRAEVEAKVAA | 368 pM |
| E43R (designed binder) MTLQELLREEALRRAEAEAFRYALELLAEKFPEQKEYLLDLAREIESQIRSLSGVDVEDVRKFLDKEWAWVKELLAEHPAELAEVEAARAARLAELRAEVEAKVAA | 593 pM |
| E81F (designed binder) MTLQELLREEALRRAEAEAFRYALELLAEKFPEQKEYLLDLAEEIESQIRSLSGVDVEDVRKFLDKEWAWVKELLAEHPAFLAEVEAARAARLAELRAEVEAKVAA | 718 pM |
| L64H (designed binder) MTLQELLREEALRRAEAEAFRYALELLAEKFPEQKEYLLDLAEEIESQIRSLSGVDVEDVRKFHDKEWAWVKELLAEHPAELAEVEAARAARLAELRAEVEAKVAA | 956 pM |
